One series has as its system YEATS2-YEATS (human). As to the kind of experiment: MST. The note with it: NCP plate assay: 10 mM Tris-HCl pH 7.5, 150 mM NaCl, 25 C, 1 h, 5 pmol NCP, 25 pmol protein; MST buffer not in material.
Another series deals with AF9-YEATS (human). As to the kind of experiment: MST. The note with it: NCP plate assay: 10 mM Tris-HCl pH 7.5, 150 mM NaCl, 25 C, 1 h, 5 pmol NCP, 25 pmol protein, MST buffer not in material.
The test system of a further series is GAS41-YEATS (human). As to the kind of experiment: MST. The note with it: NCP plate assay: 10 mM Tris-HCl pH 7.5, 150 mM NaCl, 25 C, 1 h, 5 pmol NCP, 25 pmol protein; MST buffer not in material.
The test system of a further series is AF9-YEATS E57A (human). The series can be described thus: MST. The note with it: NCP plate assay: 10 mM Tris-HCl pH 7.5, 150 mM NaCl, 25 C, 1 h, 5 pmol NCP, 25 pmol protein, MST buffer not in material.
For series [1], the target named is unmodified nucleosome core particle (NCP) (human) (UniProt P04908). The series can be described thus: MST; YEATS domain labelled with a His-tag labeling kit; 10 mM Hepes-NaOH pH 7.4, 150 mM NaCl; room temperature; Monolith NT.115; fitted to the Hill equation, K1/2 = half-saturation concentration; biological triplicate.
In series [2] the target is H4K8/K12-diacetylated NCP (human) (UniProt P04908). Described as above.
For series [3], the target named is H4K5/K8/K12/K16-tetra-acetylated NCP (human) (UniProt P04908). The series is described as above.
Series [4] addresses H4K5/K8-diacetylated NCP (human) (UniProt P04908). The description is as above.
Series [5] has as its target H4K5-acetylated NCP (human) (UniProt P04908). Described as above.
Series [6] has as its target H3K9-acetylated NCP (human) (UniProt P04908). The description is as above.
For series [7], the target named is H4K8-acetylated NCP (human) (UniProt P04908). Described as above.
In series [8] the target is H4K12-acetylated NCP (human) (UniProt P04908). The series is described as above.
Setting [9] is: histone H4K5ac/K8ac/K12ac/K16ac.

Sequence of AF9-YEATS domain, polyhistidine-tagged (microscale thermophoresis) (P42568 1-138): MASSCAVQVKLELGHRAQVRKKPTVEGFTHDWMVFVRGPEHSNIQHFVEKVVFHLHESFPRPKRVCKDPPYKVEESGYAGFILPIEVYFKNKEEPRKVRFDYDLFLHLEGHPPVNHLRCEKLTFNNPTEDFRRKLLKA

With nucleosome-free 147-bp dsDNA, the K half with YEATS2-YEATS (human) was 8.2 µM; with AF9-YEATS (human) it was 12000 nM; in the series on GAS41-YEATS (human), > 50000 nM.

H4K5ac/K8ac NCP gave a K half in the series with AF9-YEATS (human) (histone H4K5ac/K8ac) of 30 nM. In the series on AF9-YEATS E57A (human) (histone H4K5ac/K8ac), this substance yielded a binding signal (fold K1/2 increase vs WT) of 1.8.

In the series with AF9-YEATS (human) (histone H4K8ac/K12ac), H4K8ac/K12ac NCP came in with a K half of 41 nM. Besides, in the series on AF9-YEATS E57A (human) (histone H4K8ac/K12ac), the binding signal (fold K1/2 increase vs WT) is 1.3.

In the case of H4K5ac NCP, the K half in the series on AF9-YEATS (human) (histone H4K5ac) was 120 nM.

“GAS41-YEATS domain, polyhistidine-tagged (microscale thermophoresis) (from UniProt O95619 15-159) (domain or fragment)” had a K1/2 (half-saturation concentration) in series [1] of 1.4 µM.

Consider H3K9ac NCP, for which the K half with AF9-YEATS (human) (histone H3K9ac) is 16 nM.

Turning to H4K8ac NCP, the K half in the series on AF9-YEATS (human) (histone H4K8ac) was 75 nM.

In the case of unmodified NCP, the figures for the K half with YEATS2-YEATS (human), in the series with AF9-YEATS (human) and in the series on GAS41-YEATS (human) were 2.6 µM, 140 nM and 1400 nM, respectively.

For “AF9-YEATS E57A mutant (from UniProt P42568 1-138) (domain or fragment)”, the fold increase in K1/2 against the WT turned out to be 1.3 fold in series [2], 1.5 fold in [3] and 1.8 fold in [4].

H4K5ac/K8ac/K12ac/K16ac NCP returned a K half with AF9-YEATS (human) (setting [9]) of 25 nM. The substance further showed a binding signal (fold K1/2 increase vs WT) with AF9-YEATS E57A (human) (setting [9]) of 1.5.

H4K12ac NCP came in with a K half in the series on AF9-YEATS (human) (histone H4K12ac) of 140 nM.

“AF9-YEATS domain, polyhistidine-tagged (microscale thermophoresis) (from UniProt P42568 1-138) (domain or fragment)”: the K1/2 (half-saturation concentration) in [2] was determined as 41 nM; in [3], 25 nM; in series [5], 120 nM; in series [1] it was 0.14 µM; in series [6], 16 nM; in series [7], 75 nM. Besides, the K1/2 (half-saturation concentration) turned out to be 30 nM in [4] and 140 nM in [8].

In series [1], “YEATS2-YEATS domain, polyhistidine-tagged (microscale thermophoresis) (from UniProt Q9ULM3 200-349) (domain or fragment)” returned a K1/2 (half-saturation concentration) of 2.6 µM.

These data come from PMC9293779, “Elucidation of binding preferences of YEATS domains to site-specific acetylated nucleosome core particles” (The Journal of Biological Chemistry, 2022).
